In assay [1] the target is T1, full length human 5T4 (SEQ ID NO: 1) on cells (human, UniProt Q13641 32-420).
T1 construct: Uniprot Q13641; residues 1-31 are the signal peptide; Used both for transfected HEK-293 cells and for 5T4-expressing human tumor cell lines
T1 sequence: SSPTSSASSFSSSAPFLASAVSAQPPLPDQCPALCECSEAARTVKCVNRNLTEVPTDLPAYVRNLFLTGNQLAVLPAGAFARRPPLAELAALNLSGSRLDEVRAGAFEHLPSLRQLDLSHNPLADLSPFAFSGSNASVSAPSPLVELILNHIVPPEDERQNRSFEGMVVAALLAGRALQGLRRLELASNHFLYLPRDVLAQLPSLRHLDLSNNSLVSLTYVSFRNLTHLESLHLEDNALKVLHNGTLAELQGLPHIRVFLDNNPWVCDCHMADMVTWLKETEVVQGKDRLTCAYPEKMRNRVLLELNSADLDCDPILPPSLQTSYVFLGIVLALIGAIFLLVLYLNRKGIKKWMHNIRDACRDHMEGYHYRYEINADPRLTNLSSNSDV
Nature of the assay: flow cytometry, HeLa cells, FITC secondary [I)A]. On the technique in general: A flow cytometer gives signals particle by particle.
Description: (§1) After washing twice in staining buffer, cells were incubated in 50 µL secondary antibody at 4° C. for 30 min. […] Next, cells were washed twice in staining buffer, re-suspended in 120 µL staining buffer and analyzed on a BD LSRFortessa FACS (BD Biosciences, USA). Binding curves were analyzed using non-linear regression (sigmoidal dose-response with variable slope) using GraphPad Prism V7.02 software (GraphPad Software, San Diego, CA, USA).

Assay [2] addresses T2, full length cynomolgus monkey 5T4 on transfected HEK-293 cells (cynomolgus monkey, UniProt Q4R8Y9 35-420).
T2 construct: Uniprot Q4R8Y9; residues 1-34 are the signal peptide; also called cynomolgus 5T4
T2 sequence: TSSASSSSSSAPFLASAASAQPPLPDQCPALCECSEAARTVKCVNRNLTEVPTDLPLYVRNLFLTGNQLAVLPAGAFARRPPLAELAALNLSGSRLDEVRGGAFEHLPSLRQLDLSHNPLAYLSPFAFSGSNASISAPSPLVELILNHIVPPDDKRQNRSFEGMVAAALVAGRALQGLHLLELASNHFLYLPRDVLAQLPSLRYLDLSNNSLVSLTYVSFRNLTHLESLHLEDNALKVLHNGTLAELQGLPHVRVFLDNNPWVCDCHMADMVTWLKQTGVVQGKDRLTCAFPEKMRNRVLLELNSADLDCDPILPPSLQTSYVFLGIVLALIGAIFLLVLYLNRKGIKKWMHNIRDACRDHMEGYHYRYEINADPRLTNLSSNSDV
Nature of the assay: flow cytometry, HEK-293 cells transfected with cynomolgus monkey 5T4, FITC secondary [I)A].
Description: (§2) Experiments were performed in technical duplicate. After washing twice in staining buffer, cells were incubated in 50 µL secondary antibody at 4° C. for 30 min. […] Cells were washed twice in staining buffer, re-suspended in 30 µL staining buffer and analyzed on an iQue Screener (Intellicyt Corporation, USA). Binding curves were analyzed using non-linear regression (sigmoidal dose-response with variable slope) using GraphPad Prism V7.02 software (GraphPad Software, San Diego, CA, USA).

The target in assay [3] is T1, full length human 5T4 (SEQ ID NO: 1) on …. Nature of the assay: flow cytometry, HEK-293 cells transfected with human 5T4, PE secondary [II)A].
In assay [4] the target is T2, full length cynomolgus monkey 5T4 on …. The experiment in a line: flow cytometry, HEK-293 cells transfected with cynomolgus monkey 5T4, PE secondary [II)A].
Assay [5] addresses T1, full length human 5T4 (SEQ ID NO: 1) on …. The experiment in a line: flow cytometry, HEK-293 cells transfected with human 5T4, FITC secondary [I)A].
Description: as §2
Assay [6] shares this target. The experiment in a line: flow cytometry, MDA-MB-231 cells, FITC secondary [I)A].
Description: as §1
For assay [7] the target is unchanged. The experiment in a line: flow cytometry, HEK-293 cells transfected with human 5T4, PE secondary [II)B].
Assay [8] has the same target. Nature of the assay: flow cytometry, HeLa cells, FITC secondary [I)C].
Description: as §1
Assay [9] has the same target. The experiment in a line: flow cytometry, HEK-293 cells transfected with human 5T4, FITC secondary [I)B].
Description: as §2
The target is the same in assay [10]. Nature of the assay: flow cytometry, MDA-MB-231 cells, FITC secondary [I)C].
Description: Binding of CD3x5T4 bispecific and 5T4 monospecific antibodies to 5T4-positive human tumor cells. Mono- and bivalent binding of 5T4 antibodies to HeLa cells (left panels) or MDA-MB-231 cells (right panels) was determined by flow cytometry. Cells were incubated with increasing concentrations of antibodies. After secondary labelling with FITC-conjugated goat-anti-human IgG F(ab′)2, the MFI was determined by flow cytometry.
as §1
Assay [11] addresses T2, full length cynomolgus monkey 5T4 on …. The experiment in a line: flow cytometry, HEK-293 cells transfected with cynomolgus monkey 5T4, PE secondary [II)B].

B1: IgG1-5T4-207-FEAR (antibody, V domains shown)
VH: QVQLQQWGAGLLKPSETLSLTCAVYGGSFSGYYWTWIRQPPGKGLEWIGEIDHSESTNYNPSLKSRVTISVDTSKNQFSLKLSSVTAADTAVYYCAGWFGELYHYYYGMDVWGQGTTVTVSS
VL: EIVLTQSPATLSLSPGERATLSCRASQSVSSYLAWYQQKPGQAPRLLIYDASNRATGIPARFSGSGSGTDFTLTISSLEPEDFAVYYCQQRSNWPLTFGGGTKVEIKR
notes: Monospecific, bivalent IgG1 FEAR
One may read the EC50 (read off the curve) as the concentration needed to bring the measured effect to its halfway point. With B1, the “EC50 (read off the curve)” value was approximately 0.008 mg/L in [1]; approximately 0.06 mg/L in assay [2]; approximately 0.08 mg/L in assay [3]; approximately 0.08 mg/L in [4]; approximately 0.05 mg/L in assay [5]; approximately 0.03 mg/L in assay [6].

B2: IgG1-5T4-226-FEAR (antibody, V domains shown)
VH: QVQLQQWGAGLLKPSETLSLTCAVYGGSFSGYYWSWIRQPPGKGLEWIGEIDHSGSTNYNPSLKSRVTISVDTSKNQFSLKLSSVTAADTAVYYCAAWFGELWDYYYGMDVWGQGTTVTVSS
VL: EIVLTQSPATLSLSPGERATLSCRASQSVSSFLAWYQQKPGQAPRLLIYDASNRATGIPARFSGSGSGTDFTLTISSLEPEDFAVYYCQQRSNWPLTFGQGTRLEIK
notes: Monospecific, bivalent human IgG1 kappa with L234F, L235E, D265A, K409R (FEAR); also called IgG1-5T4-226-FEAR-FITC
Turning to B2, the “EC50 (read off the curve)” value in assay [7] was approximately 0.02 mg/L; in [8] it was approximately 0.01 mg/L; in assay [9], approximately 0.1 mg/L; in assay [10], approximately 0.04 mg/L; in assay [11] it was approximately 0.02 mg/L.

The values are drawn from US20230257479A1 (Genmab, published 2023).
